± gives the uncertainty stated by the source.
assay: abundance fitness (aPCA) (normalised: wild type 0, dead -1); higher = more abundant; growth selection in yeast, the domain comes from the species named; settings: Homo sapiens

| Substance | abundance fitness |
| --- | --- |
| DnaJ homolog subfamily B member 1 I20R, P25685 | -0.832 ± 0.06 |
| DnaJ homolog subfamily B member 1 I20S, P25685 | -0.782 ± 0.061 |
| DnaJ homolog subfamily B member 1 I20W, P25685 | -1.42 ± 0.12 |
| DnaJ homolog subfamily B member 1 I48A, P25685 | -0.108 ± 0.079 |
| DnaJ homolog subfamily B member 1 I48C, P25685 | -0.073 ± 0.11 |
| DnaJ homolog subfamily B member 1 I48D, P25685 | -0.667 ± 0.12 |
| DnaJ homolog subfamily B member 1 I48E, P25685 | -0.697 ± 0.095 |
| DnaJ homolog subfamily B member 1 I48F, P25685 | -0.41 ± 0.13 |
| DnaJ homolog subfamily B member 1 I48G, P25685 | -0.615 ± 0.065 |
| DnaJ homolog subfamily B member 1 I48H, P25685 | -0.561 ± 0.12 |
| DnaJ homolog subfamily B member 1 I48K, P25685 | -0.329 ± 0.2 |
| DnaJ homolog subfamily B member 1 I48L, P25685 | -0.089 ± 0.072 |
| DnaJ homolog subfamily B member 1 I48M, P25685 | -0.111 ± 0.099 |
| DnaJ homolog subfamily B member 1 I48P, P25685 | -0.561 ± 0.1 |
| DnaJ homolog subfamily B member 1 I48Q, P25685 | -0.422 ± 0.12 |
| DnaJ homolog subfamily B member 1 I48R, P25685 | -0.74 ± 0.075 |
| DnaJ homolog subfamily B member 1 I48S, P25685 | -0.387 ± 0.074 |
| DnaJ homolog subfamily B member 1 I48V, P25685 | -0.267 ± 0.089 |
| DnaJ homolog subfamily B member 1 I48W, P25685 | -1 ± 0.11 |
| DnaJ homolog subfamily B member 1 I48Y, P25685 | -0.386 ± 0.2 |
| DnaJ homolog subfamily B member 1 I63A, P25685 | 0.237 ± 0.097 |
| DnaJ homolog subfamily B member 1 I63C, P25685 | -0.083 ± 0.1 |
| DnaJ homolog subfamily B member 1 I63D, P25685 | -0.014 ± 0.21 |
| DnaJ homolog subfamily B member 1 I63E, P25685 | 0.092 ± 0.1 |
| DnaJ homolog subfamily B member 1 I63F, P25685 | -0.212 ± 0.26 |

| Substance | abundance fitness |
| --- | --- |
| DnaJ homolog subfamily B member 1 I63G, P25685 | -0.003 ± 0.089 |
| DnaJ homolog subfamily B member 1 I63H, P25685 | -0.311 ± 0.33 |
| DnaJ homolog subfamily B member 1 I63K, P25685 | -0.019 ± 0.13 |
| DnaJ homolog subfamily B member 1 I63L, P25685 | -0.097 ± 0.082 |
| DnaJ homolog subfamily B member 1 I63M, P25685 | -0.087 ± 0.085 |
| DnaJ homolog subfamily B member 1 I63N, P25685 | -0.012 ± 0.11 |
| DnaJ homolog subfamily B member 1 I63P, P25685 | 0.08 ± 0.11 |
| DnaJ homolog subfamily B member 1 I63Q, P25685 | 0.098 ± 0.074 |
| DnaJ homolog subfamily B member 1 I63R, P25685 | 0.044 ± 0.074 |
| DnaJ homolog subfamily B member 1 I63S, P25685 | 0.108 ± 0.068 |
| DnaJ homolog subfamily B member 1 I63T, P25685 | 0.588 ± 0.081 |
| DnaJ homolog subfamily B member 1 I63V, P25685 | 0.016 ± 0.065 |
| DnaJ homolog subfamily B member 1 I63W, P25685 | -0.277 ± 0.12 |
| DnaJ homolog subfamily B member 1 I63Y, P25685 | -0.236 ± 0.12 |
| DnaJ homolog subfamily B member 1 K21A, P25685 | -0.071 ± 0.072 |
| DnaJ homolog subfamily B member 1 K21C, P25685 | -0.089 ± 0.071 |
| DnaJ homolog subfamily B member 1 K21D, P25685 | -0.25 ± 0.12 |
| DnaJ homolog subfamily B member 1 K21E, P25685 | -0.182 ± 0.1 |
| DnaJ homolog subfamily B member 1 K21H, P25685 | 0.006 ± 0.085 |
| DnaJ homolog subfamily B member 1 K21L, P25685 | -0.029 ± 0.051 |
| DnaJ homolog subfamily B member 1 K21P, P25685 | -0.822 ± 0.08 |
| DnaJ homolog subfamily B member 1 K21Q, P25685 | 0.122 ± 0.051 |
| DnaJ homolog subfamily B member 1 K21R, P25685 | -0.126 ± 0.059 |
| DnaJ homolog subfamily B member 1 K21S, P25685 | -0.097 ± 0.051 |
| DnaJ homolog subfamily B member 1 K21T, P25685 | -0.053 ± 0.064 |

| Substance | abundance fitness |
| --- | --- |
| DnaJ homolog subfamily B member 1 K21V, P25685 | -0.078 ± 0.061 |
| DnaJ homolog subfamily B member 1 K21W, P25685 | -0.152 ± 0.072 |
| DnaJ homolog subfamily B member 1 K21Y, P25685 | -0.121 ± 0.088 |
| DnaJ homolog subfamily B member 1 K35A, P25685 | -0.359 ± 0.082 |
| DnaJ homolog subfamily B member 1 K35C, P25685 | -0.46 ± 0.11 |
| DnaJ homolog subfamily B member 1 K35D, P25685 | -0.193 ± 0.13 |
| DnaJ homolog subfamily B member 1 K35E, P25685 | -0.285 ± 0.088 |
| DnaJ homolog subfamily B member 1 K35F, P25685 | -0.614 ± 0.11 |
| DnaJ homolog subfamily B member 1 K35G, P25685 | -0.25 ± 0.083 |
| DnaJ homolog subfamily B member 1 K35H, P25685 | -0.724 ± 0.12 |
| DnaJ homolog subfamily B member 1 K35I, P25685 | -0.504 ± 0.086 |
| DnaJ homolog subfamily B member 1 K35L, P25685 | -0.55 ± 0.071 |
| DnaJ homolog subfamily B member 1 K35M, P25685 | -0.596 ± 0.1 |
| DnaJ homolog subfamily B member 1 K35N, P25685 | -0.742 ± 0.13 |
| DnaJ homolog subfamily B member 1 K35P, P25685 | -0.365 ± 0.1 |
| DnaJ homolog subfamily B member 1 K35Q, P25685 | -0.213 ± 0.092 |
| DnaJ homolog subfamily B member 1 K35R, P25685 | 0.034 ± 0.092 |
| DnaJ homolog subfamily B member 1 K35S, P25685 | -0.438 ± 0.064 |
| DnaJ homolog subfamily B member 1 K35T, P25685 | -0.414 ± 0.095 |
| DnaJ homolog subfamily B member 1 K35V, P25685 | -0.396 ± 0.1 |
| DnaJ homolog subfamily B member 1 K35W, P25685 | -0.963 ± 0.095 |
| DnaJ homolog subfamily B member 1 K35Y, P25685 | -0.632 ± 0.13 |
| DnaJ homolog subfamily B member 1 K37C, P25685 | -0.267 ± 0.14 |
| DnaJ homolog subfamily B member 1 K37D, P25685 | -0.27 ± 0.2 |

From the Human Domainome abundance scans (Beltran et al. 2025)
